Each block holds one substance with its values, some of them ahead of it.
Tests used:
[1] = target: filamentous actin (F-actin), rabbit skeletal muscle (UniProt P68135); experiment: inhibition of barbed end elongation from spectrin-actin seeds (pyrenyl-actin), fitted binding curve with 1:1 stoichiometry; details: 2 µM G-actin (10% pyrenyl-labeled)
[2] = target: filamentous actin (F-actin), rabbit skeletal muscle (rabbit) (UniProt P68135)
[3] = target: filamentous actin (F-actin), rabbit skeletal muscle (rabbit) (UniProt P68135); remark: listed apart in the source
[4] = target: AEDANS-labeled monomeric actin (rabbit) (UniProt P68135); experiment: other fluorescence titration; competition: 1.5 µM AEDANS-labeled actin, increasing Thymosin β4 with 0, 15 or 30 µM Eps8(648–821) or 0, 10 or 15 µM H1–H2; 0.1 M KCl and 1 mM MgCl2 (high salt); apparent constants
[5] = target: filamentous actin (F-actin), rabbit skeletal muscle (rabbit) (UniProt P68135); remark: listed apart in the source
[6] = target: GST-fused Eps8(648–821) wild type (mouse) (UniProt Q08509); experiment: SEC + other: glycerol gradient sedimentation; Superdex200 10/30 and 10%–40% glycerol gradients (100 mM Tris-HCl pH 8, 500 mM NaCl, 1 mM dithiothreitol, 1 mM EDTA) of purified GST-Eps8(648–821) proteins

Substance: C-terminal fragment of Ce-EPS-8A (aa 714–917) fused to GST, wild type (domain or fragment)
- Kcap of barbed end inhibition: elongation from spectrin-actin seeds with 2 µM G-actin (10% pyrenyl-labeled) [2]: 108 nM

Substance: GST-fused Eps8-ΔcapΔbund, double H1 and Villin-like motif mutant of Eps8(648–821) (from UniProt Q08509 648-821) (domain or fragment)
- Kcap: barbed end elongation [3]: 4 µM

Substance: Thymosin β4 (peptide)
- Kapp with 10 µM H1–H2 [4]: 6 µM
- Kapp with 15 µM Eps8(648–821) [4]: 9 µM
- Kapp with 15 µM H1–H2 [4]: 11 µM
- Kapp with 30 µM Eps8(648–821) [4]: 14 µM
- Kd [4]: 3 µM

Further lines, results first:

- other: Kcap [1]: > 4000 nM
Substance: C-terminal fragment of Ce-EPS-8A (aa 714–917) fused to GST, wild type ΔcapΔbund

- other: Kcap [1]: 205 nM
Substance: C-terminal fragment of Ce-EPS-8A (aa 714–917) fused to GST, wild type Δbund

- other: Kcap [1]: 980 nM
Substance: C-terminal fragment of Ce-EPS-8A (aa 714–917) fused to GST, wild type Δcap

- Kcap: barbed end elongation from spectrin-actin seeds [5]: 700 nM
Substance: Eps8(648–821)-V689D-L693D (Eps8-Δcap) (from UniProt Q08509 648-821) (domain or fragment)

- stoichiometry N [6]: 2
- Kcap: barbed end elongation, wild type of Figure 6C [3]: 4 nM
- Kcap: barbed end elongation, wild type of Figure 6D [3]: 16 nM
Substance: GST-fused Eps8(648–821) wild type (from UniProt Q08509 648-821) (domain or fragment)

Source: article PMC2879411
